Reference: paper PMC8994553, “Effects of chameleon dispense-to-plunge speed on particle concentration, complex formation, and final resolution: A case study using the Neisseria gonorrhoeae ribonucleotide reductase inactive complex” (Journal of structural biology, 2021)

Target: the molecule itself
Assay: cryo-EM structure; α and β mixed 1:1.5 (α:β) with 1 mM dATP and 1 mM CDP on ice in 50 mM HEPES pH 7.6, 15 mM MgCl2, 1 mM EDTA; chameleon 54 ms dispense-to-plunge, 6 mg/mL protein (4.3 Å); also Vitrobot grid, 0.5 mg/mL (5.6 Å); dATP-inactivating conditions

B1: Neisseria gonorrhoeae class Ia ribonucleotide reductase NrdB (β) subunit, hydroxyurea-inactivated (met-β2) (enzyme, UniProt A0ACH0F974 1-377, looked up)
chain: MSYSTFPKTKNDALKEPMFFGQPVNVARYDQQKYEVFEKLIEKQLSFFWRPEEIDVSRDRIDYANLPEHEKHIFISNLKYQTLLDSIQGRSPNVALLPLVSIPELETWVETWSFSETIHSRSYTHIIRNIVNDPSVVFDDIVENEYITARAEDIACYYDDLIEYTQYYNLLGEGVHNVGGKPVTVSLRGLKKKLYLCLMCVNVLEAIRFYVSFACSFAFAERELMEGNAKIIKLIARDEALHLTGTQHMLNLMRSGVDDPEMAEIAAELQDECFQLFKKAAEQEKEWAAYLFKDGSMIGLNKEILSQYVEYITNLRMQAVGLPAGFEGANQNPIPWINAWLSSDNVQVAPQEVEISSYLIGQIDSEVNTDDLGDFEL
notes: N. gonorrhoeae class Ia RNR radical-generating subunit NrdB (β); 377 residues as printed (model holds four residues of the histidine tag, residues 1-346 and 374-376 of 377); expected MW 43253 Da; met-β2: diiron cluster reconstituted (1.8 +/- 0.3 iron per monomer), tyrosyl radical quenched with hydroxyurea; also called NgRNR β; His6-TEV-NgRNR β; source: E. coli T7 Express, pET30a(+), purified …
- binding result: binds
